Results from IntAct's records for PubMed 22087322.

B1: Interleukin-10 receptor subunit alpha (Mus musculus), Q61727 (parent)
chain: MLSRLLPFLVTISSLSLEFIAYGTELPSPSYVWFEARFFQHILHWKPIPNQSESTYYEVALKQYGNSTWNDIHICRKAQALSCDLTTFTLDLYHRSYGYRARVRAVDNSQYSNWTTTETRFTVDEVILTVDSVTLKAMDGIIYGTIHPPRPTITPAGDEYEQVFKDLRVYKISIRKFSELKNATKRVKQETFTLTVPIGVRKFCVKVLPRLESRINKAEWSEEQCLLITTEQYFTVTNLSILVISMLLFCGILVCLVLQWYIRHPGKLPTVLVFKKPHDFFPANPLCPETPDAIHIVDLEVFPKVSLELRDSVLHGSTDSGFGSGKPSLQTEESQFLLPGSHPQIQGTLGKEESPGLQATCGDNTDSGICLQEPGLHSSMGPAWKQQLGYTHQDQDDSDVNLVQNSPGQPKYTQDASALGHVCLLEPKAPEEKDQVMVTFQGYQKQTRWKAEAAGPAECLDEEIPLTDAFDPELGVHLQDDLAWPPPALAAGYLKQESQGMASAPPGTPSRQWNQLTEEWSLLGVVSCEDLSIESWRFAHKLDPLDCGAAPGGLLDSLGSNLVTLPLISSLQVEE
B2: Interleukin-10 receptor subunit alpha (Homo sapiens), Q13651 (parent)
chain: MLPCLVVLLAALLSLRLGSDAHGTELPSPPSVWFEAEFFHHILHWTPIPNQSESTCYEVALLRYGIESWNSISNCSQTLSYDLTAVTLDLYHSNGYRARVRAVDGSRHSNWTVTNTRFSVDEVTLTVGSVNLEIHNGFILGKIQLPRPKMAPANDTYESIFSHFREYEIAIRKVPGNFTFTHKKVKHENFSLLTSGEVGEFCVQVKPSVASRSNKGMWSKEECISLTRQYFTVTNVIIFFAFVLLLSGALAYCLALQLYVRRRKKLPSVLLFKKPSPFIFISQRPSPETQDTIHPLDEEAFLKVSPELKNLDLHGSTDSGFGSTKPSLQTEEPQFLLPDPHPQADRTLGNREPPVLGDSCSSGSSNSTDSGICLQEPSLSPSTGPTWEQQVGSNSRGQDDSGIDLVQNSEGRAGDTQGGSALGHHSPPEPEVPGEEDPAAVAFQGYLRQTRCAEEKATKTGCLEEESPLTDGLGPKFGRCLVDEAGLHPPALAKGYLKQDPLEMTLASSGAPTGQWNQPTEEWSLLALSSCSDLGISDWSFAHDLAPLGCVAAPGGLLGSFNSDLVTLPLISSLQSSE

Variants of: B1
Conditions: with fbw1a_human BTRC

effect of a mutation on the interaction	Variant
disrupting interaction strength	S320A;S324A;S367A
decreasing interaction strength	S320A;S324A

Variants of: B2
Conditions: with fbw1a_human BTRC

effect of a mutation on the interaction	Variant
decreasing interaction strength	S370A
disrupting interaction strength	S319A;S323A;S370A
decreasing interaction strength	S319A;S323A
